# Experimental data reported in paper PMC3855715, “Two high-resolution structures of the human E3 ubiquitin ligase Siah1” (Acta Crystallographica Section F, 2013).
# B1: human Siah1 without the RING domain (residues 91-282) (domain or fragment)
# chain: MANSVLFPCKYASSGCEITLPHTEKADHEELCEFRPYSCPCPGASCKWQGSLDAVMPHLMHQHKSITTLQGEDIVFLATDINLPGAVDWVMMQSCFGFHFMLVLEKQEKYDGHQQFFAIVQLIGTRKQAENFAYRLELNGHRRRLTWEATPRSIHEGIATAIMNSDCLVFDTSIAQLFAENGNLGINVTISMC
# notes: additional methionine at the N-terminus, a cloning artifact (seen in chain A of the 1.95 A structure); also called seven-in-absentia homologue 1; truncated Siah1; source: E. coli, purified as described previously (Rimsa et al., 2013)
# B2: full-length human SIP (Siah-interacting protein) (natural protein, UniProt Q9HB71 1-228, looked up)
# chain: MASEELQKDLEEVKVLLEKATRKRVRDALTAEKSKIETEIKNKMQQKSQKKAELLDNEKPAAVVAPITTGYTVKISNYGWDQSDKFVKIYITLTGVHQVPTENVQVHFTERSFDLLVKNLNGKSYSMIVNNLLKPISVEGSSKKVKTDTVLILCRKKVENTRWDYLTQVEKECKEKEKPSYDTETDPSEGLMNVLKKIYEDGDDDMKRTINKAWVESREKQAKGDTEF
# How the values were obtained:
# [1] = target: the molecule itself; assay: SEC; size-exclusion chromatography during purification of Siah1 91-282; single species of approximate mass 39 kDa
# [2] = target: T1, Siah1 (construct used for the complex with SIP, limits not stated) (human, UniProt Q8IUQ4 1-282); assay: SEC; size-exclusion gel chromatography of Siah1 with full-length SIP; complex purified; details: both partners purified
# T1 construct: Siah1 (seven-in-absentia homologue 1), human, UniProt Q8IUQ4
# T1 sequence (looked up): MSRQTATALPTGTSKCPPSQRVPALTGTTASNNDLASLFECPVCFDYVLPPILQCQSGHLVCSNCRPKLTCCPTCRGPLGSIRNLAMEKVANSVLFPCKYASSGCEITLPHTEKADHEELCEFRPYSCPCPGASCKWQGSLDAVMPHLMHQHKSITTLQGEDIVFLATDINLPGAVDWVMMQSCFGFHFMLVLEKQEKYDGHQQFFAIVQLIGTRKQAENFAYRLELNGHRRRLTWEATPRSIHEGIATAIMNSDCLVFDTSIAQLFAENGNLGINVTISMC
Binder,stoichiometry N [1],stoichiometry N [2]
B1,2,–
B2,–,1
